This assay deals with recombinant H2AK119Ub mono-nucleosomes (UniProt P04908). The assay is described as follows: AlphaScreen or HTRF; Alphalisa: GST-SSX or GST-SSXdel7aa titrated against 10nM biotinylated nucleosomes; EC50 by nonlinear regression.

GST-SSX1 (78aa), sequence (Q16384 111-188): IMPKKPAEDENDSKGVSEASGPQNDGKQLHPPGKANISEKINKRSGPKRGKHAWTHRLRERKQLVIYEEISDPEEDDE

“GST-SSX1 (78aa) (from UniProt Q16384 111-188) (domain or fragment)”: the fold difference (Ub/unmod) by AlphaLisa came out at 4.8 fold.
